Assay results taken from the supplement of paper PMC9170038.

Tested on: MS2 coat protein
Experiment: apparent KD of MS2 coat protein; designed switch direction (-1 OFF switch, 1 ON switch): -1; higher = weaker reporter binding
Procedure, shortened: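 For each design, the apparent KD is the median over clusters of curves fitted to normalised cluster fluorescence. Clusters held RNA switches with common flanks, transcribed on Illumina chips by stalled E. coli RNA polymerase. These were titrated with SNAP-549-labelled MS2 coat protein, doubling from 0.7 or 1.5 nM to 3 µM, without input, with 200 uM small-molecule ligand, or with an oligonucleotide input.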

[1] = input ligand: microRNA oligo, concentration not stated
[2] = Eterna round: R95, input ligand: microRNA oligo, concentration not stated
[3] = Eterna round: R95, input ligand: FMN 200 uM
[4] = Eterna round: R95, input ligand: none

Sequence	apparent KD of MS2 coat protein (input ligand: FMN 200 uM)	apparent KD of MS2 coat protein (input ligand: none)	apparent KD of MS2 coat protein [1]	apparent KD of MS2 coat protein [2]	apparent KD of MS2 coat protein [3]	apparent KD of MS2 coat protein [4]
UUGUCACAUGAGGAUCACCCAUGUGAGGAUAUGGCCCGCCCGGCGUGUGCUGGUUUUGUCAGAAGGCGCGUGGG [salish99_ex1_r4_028] (Eterna round: R97, puzzle: Exclusion 1)	0.0246 µM	0.0196 µM	–	–	–	–
UUGAACCCGGUAGGAUAUAUUGUGGGCAAACAUGGAACAACAUGAGGAUCACCCAUGUAAUUUAGGUAGAAGGGCCAAAAGAUU [Excl-NG2-LRO06] (Eterna round: R96, puzzle: Exclusion NG 2)	0.0721 µM	0.0699 µM	0.061 µM	–	–	–
ACAUGAGGAUCACCCAUGUCCGUCUGGUCUGUCUCGGCUGUCGAGGAUAUAGCCCGGUAUCCGCGCUAGAAGGCGGGAGUCGGC [Aenatbe mod 97] (Eterna round: R96, puzzle: Exclusion NG 3)	0.0231 µM	0.0296 µM	0.0245 µM	–	–	–
UAUUAAUGCAAGGAUAUGCUUUUAAUUUUUUUUGCAGAAGGUGCAACAUGAGGAUCACCCAUGUUUCAGGGUAU [JR_E6_Sub031] (puzzle: Exclusion 6)	–	–	–	0.0351 µM	–	–
AGAUUAAAAGUAAGGAUAUGAUGCAGGAAACUGCGUCAGAAGGUACAUGAGGAUCACCCAUGUUAAACUAAUUU [Explosion 6 - Jieux - Brourd's mod of Exclusion 4] (Eterna round: R97, puzzle: Brourd's mod of Exclusion 4)	0.0194 µM	0.0144 µM	–	–	–	–
UAUUAGCAAGCGAAAUCCCACAUGAGGAUCACCCAUGUAAAUAAAAGCUCCAGAAUUACUGGAGCAGCUCGUCUUAU [Winner reversed engineered 18] (Eterna round: R97, puzzle: Sensor, turn-off variant 1)	0.0298 µM	0.0245 µM	–	–	–	–
CAUCCGGCAGGAUAUACAUGAGGAUCACCCAUGUCAGAAAGCAAAUUGUGCGACUCAGGUAGAAGGGUUGGACU [Ederusat] (puzzle: Exclusion 3)	–	–	–	0.0211 µM	–	–
GAAACGCGAGGAUAUACAGACGAGUCCAUUACGUGUCUCGGACUUGAGGAUCACCCAAGUAGAAGGCGUCUCAG [salish99_ex2_r4_631] (Eterna round: R97, puzzle: Exclusion 2)	0.0248 µM	0.0276 µM	–	–	–	–
AAACUGUGAGGAUAUGCACGGGCCCUCUUAAUAAAACCAAAACAUGAGGAUCACCCAUGUAGAAGGCACACAUA [EX2 A.24] (Eterna round: R97, puzzle: Exclusion 2)	0.0535 µM	0.543 µM	–	–	–	–
AUUAUGUUAGGAUAUGCUUAUGGUGGAUAGUCCAAUGUGGUGCAGAAGGGACAUGAGGAUCACCCAUGUGCUGA [EX4 #30] (Eterna round: R97, puzzle: Exclusion 4)	0.0923 µM	0.0575 µM	–	–	–	–
GCGGACUUGAACGUGAGUUCAGAGACAUGAGGAUCACCCAUGUAGGAUAUCGAUUCGAAACGAAUCGAGAAGGGCAUAGUCCGC [JL denovo 13] (Eterna round: R96, puzzle: Exclusion NG 3)	0.0233 µM	0.0161 µM	0.0118 µM	–	–	–
UCGCUGCGAGGAUAUACAUGAGGAUCACCCAUGUACGGGUCCGGGUCUUCGUCCAUUAGUAGAAGGCGCAGUGA [JL Laongeedie mod 2] (puzzle: Exclusion 3)	–	–	–	0.0477 µM	–	–
AGCUGUGGCCGAGGAUAUGACAUGAGGAUCACCCAUGUACAUAAUUAGGCCUGGUAACAGGCUCUUCAGAAGGCGGUCUCAGCA [Eli eng2 - 006] (Eterna round: R96, puzzle: Exclusion NG 2)	0.00727 µM	0.0118 µM	0.00645 µM	–	–	–
AGUGCUGCAGGAUAUUCUAUUAAUUACAUGAGGAUCACCCAUGUGAAUGGACAAGGGUGUGAAGAAGGGUGGUGCG [Omei Ex5 A17h] (Eterna round: R97, puzzle: Exclusion 5)	0.375 µM	0.605 µM	–	–	–	–
ACGAUGAUCGAAAAGUGUAAAUCGACAUGAGGAUCACCCAUGUAGGAUAUGGCUACGAAAAGUAGUCAGAAGGGCAUGUCAUCA [3 Av 11 mod - 1] (Eterna round: R96, puzzle: Exclusion NG 3)	0.0369 µM	0.0311 µM	0.0257 µM	–	–	–
CCGUAACAUGAGGAUCACCCAUGUCAGGAUAUUCCAAAAUCGUCGAAAGACGAUAACAGAAGAAGGGACAACGG [Fiskxlusion 2 - Jieux - Exclusion 1] (Eterna round: R97, puzzle: Exclusion 1)	0.0476 µM	0.0289 µM	–	–	–	–
AACUAUUUAGGAUAUCAGGCGAACCACAUGAGGAUCACCCAUGUGGCCCGUUGUGGUCCUUGAGAAGGAAAGAGUU [EX5 B.15] (Eterna round: R97, puzzle: Exclusion 5)	0.0535 µM	0.0227 µM	–	–	–	–
AGUAACUAUCACGAAAGUGAUAGUUACACAAGCAGUGGAACAUGAGGAUCACCCAUGUCCUCAUUUGCUCGUCUUAU [Sensor 3 - 27] (puzzle: Sensor v3, turn-off variant 2)	–	–	–	0.0196 µM	0.0355 µM	0.0422 µM
ACUGGUCGAGGAUAUACAAUCGUGCUUCGGCACGUAAGGUCACAUGAGGAUCACCCAUGUAGAAGGCGACCAGU [E2/2-A3] (Eterna round: R97, puzzle: Exclusion 2)	0.226 µM	0.0295 µM	–	–	–	–
GCCCUCACAGUGAGGAUAUCUGAGCAUCCCGCUAAGGAGAAGGCACAUGAGGAUCACCCAUGUAAUUGGUUUAA [BmEX4 A.22] (Eterna round: R97, puzzle: Brourd's mod of Exclusion 4)	0.124 µM	0.0398 µM	–	–	–	–
AGUAACAGAGGAUAUACUGUUUUAUGUAUUUAUUAUUUUAAACAUGAGGAUCACCCAUGUAGAAGGCUGAAUAA [JMF 81] (puzzle: Exclusion 2)	–	–	–	0.0175 µM	–	–
CAAAAGGUAGGAUAUACGAAAAAAAAGGGUAGAAAAAAAACACAUGAGGAUCACCCAUGUAGAAGGACCAAAAG [salish99_ex2_r3_053] (puzzle: Exclusion 2)	–	–	–	0.0249 µM	0.0712 µM	0.0222 µM
AGGUGCUUCUGGAGACAUGAGGAUCACCCAUGUCGAGUCAGCGAGGAUAUCGGUAAGACAUGUGAUGAGAAGGCGCAGACCGAU [Ex NG3 #52] (Eterna round: R96, puzzle: Exclusion NG 3)	0.0486 µM	0.0308 µM	0.0226 µM	–	–	–
AAUAAUAAGGAGGAUAUCGUAUCGGAAACGAUACGAGAAGGCCUAACAUGAGGAUCACCCAUGUUCCUUAAAUA [Mat - Exclusion 6 - Eli Mod - D61] (puzzle: Exclusion 6)	–	–	–	0.0191 µM	0.0373 µM	0.0201 µM
CAUUGUGUUGAGGAUAUGCGCCGGCUCGCUGGCGCAGAAGGCGGCACAUGAGGAUCACCCAUGUCAGUUCGCGA [salish99_ex6_r004_416] (Eterna round: R97, puzzle: Exclusion 6)	0.452 µM	0.038 µM	–	–	–	–
UCAAGCUUUAAGCGUGUGAACAUGAGGAUCACCCAUGUAUUUUAGGUAAUAAGUUCAAUUAUGUAUUCUCGUCUUAU [JR_SWV3TOV1_Sub095] (Eterna round: R96, puzzle: Sensor v3, turn-off variant 1)	0.0615 µM	0.0654 µM	0.0454 µM	–	–	–
